Assay results as given in the DeepSol protein solubility set.

test: soluble on expression in E. coli; label from the status in PepcDB or PDB records

Row | Sequence | soluble on expression in E. coli
1 | MTLRKILALTCLLLPMMASAHQFETGQRVPPIGITDRGELVLDKDQFSYKTWNSAQLVGKVRVLQHIAGRTSAKEKNATLIEAIKSAKLPHDRYQTTTIVNTDDAIPGSGMFVRSSLESNKKLYPWSQFIVDSNGVALGAWQLDEESSAVVVLDKDGRVQWAKDGALTPEEVQQVMDLLQKLLK | not soluble
2 | MKWSEYANLAQQSLEKFYLADTKEQFLNNFYPTENPEEDNKVFNYWWLAHLVEVRLDAYLRTKKQADLEVAEKTYLHNKNRNGGTLIHDFYDDMLWNALAAYRLYKATGKSIYLEDAQLVWQDLVDTGWNDIMGGGFAWRRPQMYYKNTPVNAPFIILSCWLYNELNETKYLEWAMKTYEWQTKVLVREDGFVEDGINRLEDGTIDYEWKFTYNQGVYIGANLELYRITKEAKYLDTANKTAAISLKELTEDGIFKDEGNGGDEGLFKGIFYRYFTDLIEETANKTYRDFVLNSCQILVENAKLDGYLLMGMNWKEKPSGKIPYSAELSGMIALEMAAKLELEHHHHHH | soluble
3 | MAHHHHHHMSNAEEETVKKKKKYRKDKPWDNENIDHWKVEKFTQEDNKHHFLEESSFKVLFPKYREKYLQQFSSDIKNVLNKHFIKFEIDLIEGYMCVKTTKKTFDPYIIIKSRDMISLLSRSVPFVHAKRVLEDETYCDIIKISGYVRNKNKFIKRRQRLLGSNATTLKALEILTNCYICIHGKTVSVIGHFKSLKVVRRIIIDCMKNIHPVYHIKELIAKRELEKNEEFKNENWEKFLPNFKKRNVQRKKIKEKLDKKKKKNKSVFPPDQLPRKIDIQMETGEYFLNNQKNKKKDKTQDKQQKGND | not soluble
4 | MGSDKIHHHHHHMANYPGIDTELLRTFVAIADHGGFTRAGEVVNRTQSAVSMQMKRLEEDVVQRQLFQREGRTLNLTAEGQVLLGYARRILKLHSEVFNTLREPHMVGVVKIGSPDDYVMRFLPGILSQFAQAYPLVQVEVHCEPSDLLLQRQDLDLTIVTRKPGTEIGTLLRHERLVWMEAIGFAPHEQKPMPLAMFNTHCFCRDWACNALDSVEREYRIAYTSSSMAAITAVVSAGLAVTAQFQSLATPELRILGDAEHLPHLPTASIVLLRNPKTPSPITECMADYIIDGFKP | not soluble
5 | MGSDKIHHHHHHENDPPLSSCGIFQSRIAGDALLDSGIRISSVFASPALRCVQTAKLILEELKLEKKIKIRVEPGIFEWTKWEAGKTTPTLMSLEELKEANFNIDTDYRPAFPLSALMPAESYQEYMDRCTASMVQIVNTCPQDTGVILIVSHGSTLDSCTRPLLGLPPRECGDFAQLVRKIPSLGMCFCEENKEEGKWELVNPPVKTLTHGANAAFNWRNWISGN | not soluble
6 | MGSDKIHHHHHHMNIQQLRYVVAIANNGTFREAASKLFVSQPSLSVSIKDLEAELGFQIFNRTTSGTVLTSQGLVFYEKALEVVKSFDSFEKTFSQADLDQNEFSIASQHYDFLPPLITAFSQQYDGHRVFRIFESTTIQILDEVAQGNSEIGIIYLNVDNQKGLFQRMDKLGLEYVSLIPFTTHIYLSKTHPLANREALYLNDIQGLPAVRFTQERDEYLYYSENFVDTSECPRIYNVSDRATLNGILERTNAFATGSGFLDHRSVNGIKVIPLADHIDNQMIYVKRKDKNLSVAGATFVTILKDYFDKRRKALT | not soluble
7 | EKMTRDEIEYMLTNSEETLEAEEIEMLQGIFSLDEMMAREVMVPRTDAFMIDINNDAQSNIEGILSQNFSRVPVFDDDKDRVVGVLHTKRLLEAGFKTGFDTIDLRKILQEPLFVPETIFVDDLLKALRNTQNQMAILLDEYGGVAGLVTLEDLLEEIVGEID | soluble
8 | MSLSDVAKKVGVSPITISRALRNPEIVSEDLRQTILRTVDEMGYIPNLAARALAGRHNGTVGVITPALHQHGFAGLMLGIEDRLRATEFGVQYSNTLHHADGEAGQLKSFLMQKPAGVIIAGAESYHDLLPLIEKAACPIAHITDLSQEPERLVVGLDHHAAGAEPTRFLLSRGYQRIGFIGGGTDVRSRRRREGYEAAMREAGRFDPDLAIGADAAGTTGLGRELLTRLLARVPDIDAVFAQNDELALGVLIECGVRGIRVPENFGICGFNDLEFSAFTEPSLTTVHIPRYEVGYRVADMLLRAVRSEPPGEEKVDCGFSVIPRGSTREGHHHHHH | soluble
9 | GSHMPLSSENKQKLQKQVEFYFSDVNVQRDIFLKGKMAENAEGFVSLETLLTFKRVNSVTTDVKEVVEAIRPSEKLVLSEDGLMVRRRDPLP | soluble
10 | MGSDKIHHHHHHMPASSHQPLDLAKFTLSSPTEIAQHLSNIAKHGHMVTVFANKGKNFILTRLLEVDYQAGVFTFDWGAEEETNTQVLNSERNVFVCSPEGVKTQFVAGQISQVMVDDRPAFQCRLPEQVIKLQRREFFRIQTPLGSPVFCRIGDFNQRSIDLALFDISLGGMSLWLPGIDTPGFDIGQQYLQCSIDLKPFGTLALGIEVRHRLTARMRNGNEAMRIGCSYLNLSAPMETIIQRYVGFLERERRAMVG | not soluble
11 | MGSDKIHHHHHHMTSSFTDYCKFFNRILSEVQETQEQAIIKGAHLVSEAVMNGGRFYVFGSGHSHMIAEEIYNRAGGLALVTAILPPELMLHERPNKSTYLERIEGLSKSYLKLHQVTNKDVIMIISNSGRNTVPVEMAIESRNIGAKVIAMTSMKHSQKVTSRHKSGKKLYEYADVVLDNGAPVGDAGFQIANSEIYSGATSDSIGCFLAQALIVETLHLLVQQGFEPPVFKSSNVDGADLYNDKIFNEYVKW | not soluble
12 | MVTFREMDISDYNEVIALWATTENVSLRDADSRPNIEAYLKRNQGLSFVAVSDSLVIGAVLVGTDGRRGYVQHLAVSSDFRGQGIGKSLIQKATDALSRIGISKTHLFVLIENVVAQDFYTKLDWYPRDEIRMFSYNSSSNPEV | not soluble
13 | MSAEYGQYGYYGGAGGAQTTTTPAAALAASIPATSVYGEQRPTFSEDGTGAPYSTILNLVGSAAVNSDISYDTSSKDPHMIRARVFIGNIARAIITRDDIIELFRPFGKIIAVNYFAQQGFGFVQFNEAGSADESCRSLNGMSWKACCLDVHLAMLGSLRKPTGNEGRQGNTIAPAPLPVGKPLTQHAVDTSAQSAKRPYEDEEYEIFKQNKRNKQFANGDTTINEQLAPNEMCDTMVCGYCRFVTSDFEEFKEHRIAGCNKYKDPEEPRHRLKCATCSQRFLGAWGLLEHLTDFHRMLLYTEEKMTPNDLAQMRGGSVSTPSSIPETPASGSAAPAAPNSANSTPSHHIVEGAPLSYSSNNGTPQI | not soluble
14 | MSSMEGKKVPQVTFRTRQGDKWVDVTTSELFDNKTVIVFSLPGAFTPTCSSSHLPRYNELAPVFKKYGVDDILVVSVNDTFVMNAWKEDEKSENISFIPDGNGEFTEGMGMLVGKEDLGFGKRSWRYSMLVKNGVVEKMFIEPNEPGDPFKVSDADTMLKYLAPQHQVQESISIFTKPGCPFCAKAKQLLHDKGLSFEEIILGHDATIVSVRAVSGRTTVPQVFIGGKHIGGSDDLEKYFA | soluble
15 | MTRQRFISDDHYKFQSEHFIRLHGCDISLFPLEIKGKESISDVYSYEIKCFSRTDHNSLDKLHGTRLSCEIGEQYNSLPARFIHGVVTKVIYNYDNSMQHTCIIILQPEIAELASGKRTRVWSNIKPSDIVSTILEDSLFSPPQVILYKEQNLLEYKIQYQESDLDFINRILSEAGIYYFFVHNRDKHIMTLADDPASHPKASYDKLEHLPCENLKESRHGYIREWSFTESLKCPSVTLSGYNESNVSEITIKSESKLTDVKPSKGVYEDIIPERKRELIKKRSEALIASCDSELKIWSGKTDSWWLSCGECFSLDKQDYRITSLYLNAVNNDNEHAGLCYCDLCASDNKSSLNFSREFKTPIIPGVLLARVVGPDSEEYYTDDNGRVKISFLWGEKSAAGTDKTSCWVRVSQVWSGEGFGSQFIPRIGSEVLVSFIQGNPDYPVIVGTVYNGQNTSPFSLPENNCKSGFITRSVKNGKKGEGHQLVFDDKEGEEKVIVTSSGDSLLTVKKDMISTINRSMSLTIAEGRNAEIKRGNDRLVLKEGDLHNDVHGNINIKVSNGDYNLKVSGGSGSLITDKNLTLESTQSIKIKVGANEITISTSGIDIKAAKITIEGQVSAEVKAATLKFESQAISEVKGTMLTLQGSAMTQIKGGIVNIG | not soluble
16 | MDSGYWQSQFEDWLRHHHQEQDAAHDIFHFRRVWATAQTLGENSPVDWLVVLSACYFHDIVSLAKNHPQRHRSSILAAAETRRIFLRDFPDFPAEKLAGICHAIEAHSFSAKIAPTTPEAKIVQDADRLEALGAIGLARVFAVSGALGVALFDADDPFANRRPLNDKQFALDHFQTKLLKLPLTMQTERGKSLAQRNADFLVSYMAKLSAELKGDYETRDDAVIQMFATHQLEHHHHHH | soluble
17 | MGSDKIHHHHHHCLDVDIVDRVEKEDGFFKTEDHALAAINGVYSTLYAFAYHKTNWAIILPTYEDAMFSTGNAVPATVSNNTHSAGSAPVVNFWGELYNGIKNANEVIARVPSISFKSENDKNRIIAEAYFLRALYHYDLMRLYGGVNGIPIVIEPVTGIENAYVPQSPASKVYEQIISDFEYAAGLNDDDTPRLPKRLDPAYTSGRVTNGAAHAFLAEVYLTLGRWEDAAREAQEVISSEQYTFVNDYQNLWDIEQESLAQTEHIFSVPFFRDKDALADQSLGSNIAHLFNPAGVQVGGKLVSGNPYGKGAGAHRVQKWFIKYFQDDQGNLGYSDPSVDASIDESKLISKDYRIEVTFWRRFQQKNNNTGVLGNIVTVYPAAGGNSQENWGYIRKFIDPQGINNRTNENDMPRLRLSDMYLIRAEALNELGKYTEACQAIDMVRERARKANGTERAYPKYIGSDRPDNIGRTLTKQEFRWLVFMERGLEFAGEQKRWFDLIRMKYDENTQMYDYIKDTFIPSRPAADVQKQGVMAARKKYFPIPFAEVSRNDGVQQNPGY | not soluble
18 | MGHHHHHHSHPQDNDFLSRKAQDCYFMKLHHCPGNHSWDSTISGSQRAAFCDHKTTPCSSAIINPLSTAGNSERLQPGIAQQWIQSKREDIVNQMTEACLNQSLDALLSRDLIMKEDYELVSTKPTRTSKVRQLLDTTDIQGEEFAKVIVQKLKDNKQMGLQPYPEILVVSRSPSLNLLQNKSM | not soluble
19 | MGSPLPFRLTCVWAGEPSMKKAIIFDCEFLCLEGSQRRFWCAAHDPDPVIAQIGAVKLGLEGGFPLLETYKVLISPVDRHGRRYAIDPFFTRLTGITEENIEAEGVPLQDALSSFDSFSEGAQCWSWGKDELNMMAISTYVAGIQPPMPACRFDNAVRLLLAAGMPVEDLAKTPSNSLADYYGVAHPPLQGHDALGDALSVSYALQHLLRSGKLKPEEFTLAA | soluble
20 | GSHMPAPHGGILQDLIARDALKKNELLSEAQSSDILVWNLTPRQLCDIELILNGGFSPLTGFLNENDYSSVVTDSRLADGTLWTIPITLDVDEAFANQIKPDTRIALFQDDEIPIAILTVQDVYKPNKTIEAEKVFRGDPEHPAISYLFNVAGDYYVGGSLEAIQLPQHYDYPGLRKTPAQLRLEFQSRQWDRVVAFQTRNPMHRAHRELTVRAAREANAKVLIHPVVGLTKPGDIDHHTRVRVYQEIIKRYPNGIAFLSLLPLAMRMSGDREAVWHAIIRKNYGASHFIVGRDHAGPGKNSKGVDFYGPYDAQELVESYKHELDIEVVPFRMVTYLPDEDRYAPIDQIDTTKTRTLNISGTELRRRLRVGGEIPEWFSYPEVVKILRESNPPRPKQGFSIVLGNSLTVSREQLSIALLSTFLQFGGGRYYKIFEHNNKTELLSLIQDFIGSGSGLIIPNQWEDDKDSVVGKQNVYLLDTSSSADIQLESADEPISHIVQKVVLFLEDNGFFVF | soluble
21 | GMQGIAFQDAYPDDLSHCYGCGRNNEQGHQLKSYWRGEQTIAHFMPKPFHTAIPGFVYGGLIASLIDCHGTGSASAAAQRALEQAGEQLDEPPRFVTAALNIDYLAPTPMGVELELVGEIKEVKPRKVVVEIALSADGKLCARGHMVAVKMPETMAATSA | soluble
